What all share (assay): ELISA, biotinylated 12-mer peptide on streptavidin, 2 ug/mL FLAG-tagged VHH, anti-FLAG-HRP
For orientation: ELISA stands for enzyme-linked immunosorbent assay.

For assay [1], the target named is T1, FX activation peptide 12-mer … (SEQ ID NO:727) (human).
T1 sequence (peptide, C-terminally conjugated to biotin): LLDFNQTQPERG

The target in assay [2] is T2, FX activation peptide 12-mer PTENPFDLLDFN (SEQ ID NO:720) (human).
T2 peptide: PTENPFDLLDFN-biotin
How it is done:
(§1) To determine whether the binding epitope of the anti-FX VHH polypeptide designated “cmpd #1” are located inside the activation peptide (AP) of human FX (SEQ ID NO:2), an ELISA assay was setup. 41 unique 12-mer peptide fragments spanning the 52 residues of the activation peptide with one amino acid spacing were immobilized in microtiter plate wells followed by incubation with the VHH polypeptide to be tested, and detection of bound ligand was performed by addition of a secondary HRP-labelled antibody.
(§2) The peptides were C-terminally conjugated to biotin and 50 μL of 1 μg/mL peptide solution was used for immobilization in discrete wells of the microtiter plate which was pre-coated with 1 μg/mL streptavidin. Each well was washed with washing buffer (10 mM Tris, 150 mM NaCl, 2.5 mM CaCl₂, 0.05% Tween 20, pH 8.60) followed by addition of 50 μL of 2 μg/mL FLAG-tagged anti-FX VHH polypeptide or IgG antibody to be tested. After 1 hour non-bound VHH polypeptide was washed off using washing buffer.
(§3) Bound anti-FX activation peptide ligand was detected by first binding a HRP-labelled secondary antibody (for FLAG-tagged VHH polypeptide: Anti-FLAG mAb M2-Peroxidase (HRP) (Sigma Aldrich, US) for 1 hour, and then adding 100 μL TMB-1 ELISA substrate (Kem-En-Tec Diagnostics, Denmark).

In assay [3] the target is T3, FX activation peptide 12-mer ADLDPTENPFDL (SEQ ID NO:716) (human).
T3 peptide: ADLDPTENPFDL-biotin
The protocol: as §1, §2, §3

Assay [4] has as its target T4, FX activation peptide 12-mer ATSSSGEAPDSI (SEQ ID NO:697) (human).
T4 peptide: ATSSSGEAPDSI-biotin
The protocol: as §1, §2, §3

Assay [5] addresses T5, FX activation peptide 12-mer DAADLDPTENPF (SEQ ID NO:714) (human).
T5 peptide: DAADLDPTENPF-biotin
The protocol:
as §1, §2, §3

No end group written: not given here.

B1: Cmpd #1 (monovalent anti-FX VHH polypeptide, VHH-1.1) (VHH)
VHH: EVQLVESGGGLVQPGGSLRLSCAASGSIGAFDAMGWYRQAPGKQRELVAGIMVSRGNTNYTDSVKGRFTISRDNAKNTVYLQMNSLKPEDTAVYYCKAVKRPGPGYLEVWGQGTLVTVSS
notes: no protractor; FLAG-tagged in the peptide ELISA
Turning to B1, the ELISA signal normalized relative to the background signal (fold of background) in assay [1] came out at 1.88. Further, the “ELISA signal normalized relative to the background signal” value in assay [2] is 4.58 fold of background; in assay [3], 0.91 fold of background; in assay [4], 0.98 fold of background; in assay [5] it was 0.88 fold of background.

The values above are taken from US20240425837A1 (Novo Nordisk, published 2024).
